B1: KCNA4 (parent)
chain: YQSGGRLKRPVNVPFDIFTEEVKF
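Further: lentivirally expressed fusions sorted by FACS into six bins by GFP to DsRed ratio, PSI derived from sequencing read proportions per bin multiplied by bin number.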

Variants of: B1
Assay: protein stability index of a GFP-peptide fusion (GPS, HEK-293T) (PSI 1-6); higher = more stable
Details: c terminus: a fixed tail appended
YQSGGKLKRPVNVPFDIFTEEVKF [R6K] gave a protein stability index of 1.94.
Work on YQSGGLLKRPVNVPFDIFTEEVKF [R6L] yielded a protein stability index of 1.51.
YQSGGMLKRPVNVPFDIFTEEVKF [R6M] gave a protein stability index of 1.47.
Work on YQSGGNLKRPVNVPFDIFTEEVKF [R6N] yielded a protein stability index of 2.16.
YQSGGPLKRPVNVPFDIFTEEVKF [R6P] showed a protein stability index of 1.85.
For YQSGGQLKRPVNVPFDIFTEEVKF [R6Q], the protein stability index was 2.15.
Work on YQSGGSLKRPVNVPFDIFTEEVKF [R6S] yielded a protein stability index of 1.45.
With YQSGGTLKRPVNVPFDIFTEEVKF [R6T] the protein stability index was 2.5.
Work on YQSGGVLKRPVNVPFDIFTEEVKF [R6V] yielded a protein stability index of 1.77.
In the case of YQSGGYLKRPVNVPFDIFTEEVKF [R6Y], the protein stability index is reported as 2.51.
Work on YQSGGRAKRPVNVPFDIFTEEVKF [L7A] yielded a protein stability index of 1.71.
Variant YQSGGRCKRPVNVPFDIFTEEVKF [L7C] has a protein stability index of 1.78.
YQSGGRDKRPVNVPFDIFTEEVKF [L7D] showed a protein stability index of 1.95.
With YQSGGREKRPVNVPFDIFTEEVKF [L7E] the protein stability index was 2.16.
Variant YQSGGRFKRPVNVPFDIFTEEVKF [L7F] has a protein stability index of 2.4.
With YQSGGRGKRPVNVPFDIFTEEVKF [L7G] the protein stability index was 1.84.
YQSGGRHKRPVNVPFDIFTEEVKF [L7H] gave a protein stability index of 1.8.
With YQSGGRKKRPVNVPFDIFTEEVKF [L7K] the protein stability index was 2.15.
Work on YQSGGRMKRPVNVPFDIFTEEVKF [L7M] yielded a protein stability index of 1.56.
With YQSGGRNKRPVNVPFDIFTEEVKF [L7N] the protein stability index was 1.84.
Work on YQSGGRPKRPVNVPFDIFTEEVKF [L7P] yielded a protein stability index of 1.99.
YQSGGRQKRPVNVPFDIFTEEVKF [L7Q] showed a protein stability index of 1.68.
YQSGGRRKRPVNVPFDIFTEEVKF [L7R] showed a protein stability index of 1.7.
Work on YQSGGRSKRPVNVPFDIFTEEVKF [L7S] yielded a protein stability index of 2.29.
Variant YQSGGRTKRPVNVPFDIFTEEVKF [L7T] has a protein stability index of 2.15.
Variant YQSGGRVKRPVNVPFDIFTEEVKF [L7V] has a protein stability index of 2.28.
Work on YQSGGRWKRPVNVPFDIFTEEVKF [L7W] yielded a protein stability index of 1.77.
Work on YQSGGRYKRPVNVPFDIFTEEVKF [L7Y] yielded a protein stability index of 1.86.
Work on YQSGGRLDRPVNVPFDIFTEEVKF [K8D] yielded a protein stability index of 2.28.
In the case of YQSGGRLERPVNVPFDIFTEEVKF [K8E], the protein stability index is reported as 1.98.
Work on YQSGGRLIRPVNVPFDIFTEEVKF [K8I] yielded a protein stability index of 2.47.
Variant YQSGGRLNRPVNVPFDIFTEEVKF [K8N] has a protein stability index of 2.23.
In the case of YQSGGRLPRPVNVPFDIFTEEVKF [K8P], the protein stability index is reported as 1.7.
YQSGGRLQRPVNVPFDIFTEEVKF [K8Q] showed a protein stability index of 2.56.
In the case of YQSGGRLRRPVNVPFDIFTEEVKF [K8R], the protein stability index is reported as 2.67.
In the case of YQSGGRLSRPVNVPFDIFTEEVKF [K8S], the protein stability index is reported as 1.93.
Variant YQSGGRLVRPVNVPFDIFTEEVKF [K8V] has a protein stability index of 1.53.
Variant YQSGGRLWRPVNVPFDIFTEEVKF [K8W] has a protein stability index of 5.95.
Work on YQSGGRLKAPVNVPFDIFTEEVKF [R9A] yielded a protein stability index of 2.04.
Work on YQSGGRLKCPVNVPFDIFTEEVKF [R9C] yielded a protein stability index of 1.63.
For YQSGGRLKDPVNVPFDIFTEEVKF [R9D], the protein stability index was 1.99.
Variant YQSGGRLKEPVNVPFDIFTEEVKF [R9E] has a protein stability index of 2.06.
Work on YQSGGRLKFPVNVPFDIFTEEVKF [R9F] yielded a protein stability index of 1.58.
YQSGGRLKGPVNVPFDIFTEEVKF [R9G] showed a protein stability index of 2.31.
Work on YQSGGRLKHPVNVPFDIFTEEVKF [R9H] yielded a protein stability index of 2.02.
For YQSGGRLKIPVNVPFDIFTEEVKF [R9I], the protein stability index was 1.65.
YQSGGRLKKPVNVPFDIFTEEVKF [R9K] gave a protein stability index of 1.83.
In the case of YQSGGRLKLPVNVPFDIFTEEVKF [R9L], the protein stability index is reported as 2.11.
YQSGGRLKMPVNVPFDIFTEEVKF [R9M] gave a protein stability index of 1.46.
Work on YQSGGRLKNPVNVPFDIFTEEVKF [R9N] yielded a protein stability index of 2.07.
YQSGGRLKPPVNVPFDIFTEEVKF [R9P] gave a protein stability index of 1.72.
Work on YQSGGRLKQPVNVPFDIFTEEVKF [R9Q] yielded a protein stability index of 2.34.
YQSGGRLKSPVNVPFDIFTEEVKF [R9S] gave a protein stability index of 2.1.
Variant YQSGGRLKTPVNVPFDIFTEEVKF [R9T] has a protein stability index of 1.7.
With YQSGGRLKVPVNVPFDIFTEEVKF [R9V] the protein stability index was 1.69.
YQSGGRLKWPVNVPFDIFTEEVKF [R9W] gave a protein stability index of 3.37.
For YQSGGRLKYPVNVPFDIFTEEVKF [R9Y], the protein stability index was 2.38.
In the case of YQSGGRLKRAVNVPFDIFTEEVKF [P10A], the protein stability index is reported as 2.16.
Work on YQSGGRLKRDVNVPFDIFTEEVKF [P10D] yielded a protein stability index of 1.38.
For YQSGGRLKREVNVPFDIFTEEVKF [P10E], the protein stability index was 1.78.
YQSGGRLKRFVNVPFDIFTEEVKF [P10F] showed a protein stability index of 2.76.
For YQSGGRLKRGVNVPFDIFTEEVKF [P10G], the protein stability index was 1.53.
For YQSGGRLKRHVNVPFDIFTEEVKF [P10H], the protein stability index was 1.93.
YQSGGRLKRIVNVPFDIFTEEVKF [P10I] showed a protein stability index of 1.72.
With YQSGGRLKRKVNVPFDIFTEEVKF [P10K] the protein stability index was 1.4.
For YQSGGRLKRMVNVPFDIFTEEVKF [P10M], the protein stability index was 1.4.
Work on YQSGGRLKRNVNVPFDIFTEEVKF [P10N] yielded a protein stability index of 1.94.
Variant YQSGGRLKRQVNVPFDIFTEEVKF [P10Q] has a protein stability index of 2.2.
Variant YQSGGRLKRRVNVPFDIFTEEVKF [P10R] has a protein stability index of 1.01.
With YQSGGRLKRSVNVPFDIFTEEVKF [P10S] the protein stability index was 1.97.
In the case of YQSGGRLKRTVNVPFDIFTEEVKF [P10T], the protein stability index is reported as 1.79.
For YQSGGRLKRVVNVPFDIFTEEVKF [P10V], the protein stability index was 2.31.
In the case of YQSGGRLKRWVNVPFDIFTEEVKF [P10W], the protein stability index is reported as 1.14.
YQSGGRLKRYVNVPFDIFTEEVKF [P10Y] showed a protein stability index of 1.93.
Work on YQSGGRLKRPANVPFDIFTEEVKF [V11A] yielded a protein stability index of 2.07.
For YQSGGRLKRPDNVPFDIFTEEVKF [V11D], the protein stability index was 1.91.
YQSGGRLKRPENVPFDIFTEEVKF [V11E] gave a protein stability index of 1.65.
In the case of YQSGGRLKRPFNVPFDIFTEEVKF [V11F], the protein stability index is reported as 3.13.
Work on YQSGGRLKRPGNVPFDIFTEEVKF [V11G] yielded a protein stability index of 1.31.
YQSGGRLKRPHNVPFDIFTEEVKF [V11H] showed a protein stability index of 1.69.
YQSGGRLKRPINVPFDIFTEEVKF [V11I] showed a protein stability index of 2.3.
YQSGGRLKRPKNVPFDIFTEEVKF [V11K] showed a protein stability index of 1.39.
YQSGGRLKRPLNVPFDIFTEEVKF [V11L] gave a protein stability index of 1.95.
YQSGGRLKRPMNVPFDIFTEEVKF [V11M] gave a protein stability index of 2.32.
In the case of YQSGGRLKRPNNVPFDIFTEEVKF [V11N], the protein stability index is reported as 2.74.
For YQSGGRLKRPPNVPFDIFTEEVKF [V11P], the protein stability index was 1.82.
In the case of YQSGGRLKRPQNVPFDIFTEEVKF [V11Q], the protein stability index is reported as 2.36.
Work on YQSGGRLKRPRNVPFDIFTEEVKF [V11R] yielded a protein stability index of 1.81.
For YQSGGRLKRPTNVPFDIFTEEVKF [V11T], the protein stability index was 2.15.
YQSGGRLKRPYNVPFDIFTEEVKF [V11Y] gave a protein stability index of 2.06.
Variant YQSGGRLKRPVAVPFDIFTEEVKF [N12A] has a protein stability index of 1.65.
YQSGGRLKRPVCVPFDIFTEEVKF [N12C] showed a protein stability index of 1.8.
Work on YQSGGRLKRPVDVPFDIFTEEVKF [N12D] yielded a protein stability index of 2.38.
In the case of YQSGGRLKRPVEVPFDIFTEEVKF [N12E], the protein stability index is reported as 1.22.
